Laboratory results taken from patent US20110104140A1, “USE OF NON-CATALYTIC FORM OF HEPARANASE AND PEPTIDES THEREOF FOR REVERSING THE ANTI-COAGULANT EFFECTS OF HEPARINOIDS” (priority 2006, published 2011).
Entries after “also recorded” stand apart in the source; their conditions may differ.

Assays:
Factor Xa [1] = assay: Factor Xa activity in plasma with heparin / LMWH (anti-Xa activity); assay type: biochemical, human; conditions: for Reversal of Factor Xa inhibitory effect of heparin: peptide, dose dependent, complete at 1 mg/ml, FIG. 6; for Reversal of heparin anti-Xa activity: increasing doses of heparanase proenzyme, in the presence of AT
Protocol: Heparin inhibits the activity of activated coagulation factor X (Xa). […] Abbreviations: act. (activity), plas. (plasma).
(§1) Coagulation Assays • aPTT-Automatic determination of activated partial thromboplastin time (aPTT) of samples was performed in duplicates, by mixing pooled normal plasma with aPTT reagent (FSL actin, Dade Behring). After exactly 10 min, the clotting time was determined on Sysmex CA1500 analyzer. • Xa activity—Photometric determination of anti-Xa activity was performed to evaluate the activity of LMWH in human plasma on Sysmex CA1500 analyzer, using the LMWH Kit (Chromogenics). • PT—Prothrombin time (PT) was determined using the Innovin reagent (Dade Behring) on Sysmex CA1500 analyzer. • Protein C—Protein C activity was determined by the Berichrom Protein C kit, and ATIII was measured by the chromogenic Berichrom Antithrombin III kit (both from Dade Behring). • Platelet aggregation—Platelet aggregation was measured on normal donor platelets utilizing the Payton Aggregocorder type aggregometer (Payton Associates). • Protein S—Free Protein S was measured with the Liatest kit (Diagnostica Stago). All coagulation assays were subjected to external quality control program (NEQUAS, Sheffield, UK).
In recent years LMWH became widely used anti-coagulants due to their prominent anti-coagulant activity, and improved pharmacokinetics compared with un-fractionated heparin. However, there is still no existing anti-dot to inhibit these clinically highly abundant anti-coagulants, in the case of urgent clinical needs. Such needs may occur during extensive bleedings (e.g. brain) caused by LMWH overdose, or un-controlled bleedings in LMWH treated individuals due to other medical causes. Therefore, the effects of heparanase pro-enzyme on the anti-coagulant activities of heparinoids, was next tested by the inventors. […] Similar effects of heparanase were observed on plasma treated with unfractionated heparin (not shown).

heparanase = target: T1, heparanase (Homo sapiens, UniProt Q9Y251); conditions: previously shown, WO 2005/071070; cited from earlier work
T1 sequence (Q9Y251 158-543 limits assumed): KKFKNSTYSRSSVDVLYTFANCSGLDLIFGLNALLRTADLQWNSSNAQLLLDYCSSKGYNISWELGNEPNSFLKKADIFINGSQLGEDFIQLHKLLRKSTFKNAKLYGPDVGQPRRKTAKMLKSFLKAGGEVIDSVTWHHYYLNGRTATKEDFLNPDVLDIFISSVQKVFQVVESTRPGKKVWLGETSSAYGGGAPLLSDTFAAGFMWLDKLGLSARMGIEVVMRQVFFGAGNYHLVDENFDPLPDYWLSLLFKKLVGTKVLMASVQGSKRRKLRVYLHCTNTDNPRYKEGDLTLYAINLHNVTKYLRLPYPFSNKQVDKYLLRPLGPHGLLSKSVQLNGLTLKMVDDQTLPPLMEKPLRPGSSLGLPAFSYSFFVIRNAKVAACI

[2] = system: extrinsic coagulation pathway; assay: Prothrombin time (PT); assay type: biochemical; conditions: for Effect on PT response: not shown
Protocol: as §1
(§2) To examine the possible involvement of heparanase in the coagulation process, variety of coagulation tests including activated […] (aPTT, testing the intrinsic coagulation pathway), prothrombin time (PT, testing the extrinsic coagulation pathway), thrombin time (TT, testing thrombin mediated fibrin generation), as well as protein C and protein S (both coagulation inhibitors) were performed by the inventors.

[3] = system: heparin anti-coagulant effects on thrombin activity; assay: Thrombin time assay (TTA) in normal plasma with heparin; assay type: biochemical; conditions: FIG. 3
From the text: In the thrombin time assay (TTA), clot is generated within normal plasma. […] Abbreviations: cont. (control), sec. (seconds), N. coag. (No coagulation).
The extent of blood coagulation responses requires the balance by anticoagulant components in the microenvironment of the endothelium, represented by cell surface HSPG and associated coagulation inhibitors. Heparanase, which is released from platelets upon activation may function as a physiological procoagulant. […] Two coagulation assays are affected by heparinoids: activated partial thromboplastin time (aPTT) which measures the intrinsic coagulation pathway, and thrombin time (TT) which measures the thrombin-mediated conversion of fibrinogen to fibrin. As illustrated by FIG. 1, in both cases, heparin forms a ternary complex with the natural thrombin inhibitor antithrombin III (ATIII) and thrombin, resulting in thrombin inactivation. […] The inventors therefore next examined the effect of heparanase on the heparin induced reduction of both, aPTT and TT responses.

[4] = system: heparin anti-coagulant effects on the aPTT response; assay: aPTT assay in normal plasma with heparin; assay type: biochemical
Protocol: In the aPTT assay, clot is generated within normal plasma by the intrinsic coagulation pathway. […] Abbreviations: cont. (control), N. coag. (No coagulation).
as §1
The extent of blood coagulation responses requires the balance by anticoagulant components in the microenvironment of the endothelium, represented by cell surface HSPG and associated coagulation inhibitors. Heparanase, which is released from platelets upon activation may function as a physiological procoagulant. […] Two coagulation assays are affected by heparinoids: activated partial thromboplastin time (aPTT) which measures the intrinsic coagulation pathway, and thrombin time (TT) which measures the thrombin-mediated conversion of fibrinogen to fibrin. As illustrated by FIG. 1, in both cases, heparin forms a ternary complex with the natural thrombin inhibitor antithrombin III (ATIII) and thrombin, resulting in thrombin inactivation. […]

[5] = system: thrombin mediated fibrin generation; assay: Thrombin time (TT), direct effect; assay type: biochemical; conditions: Heparanase 10 μg/ml; normal range 14-21 sec
From the text: Another test may be the Thrombin Time (TT) assay which reflects the time taken for a plasma sample to clot on addition of thrombin. The test is essentially a measure of fibrinogen to fibrin conversion and the factors affecting this terminal stage of the coagulation system.
as §2

[6] = system: intrinsic coagulation pathway; assay: Activated partial thromboplastin time (aPTT), direct effect; assay type: biochemical; conditions: Heparanase 10 μg/ml; normal range 25-34 sec
Protocol: as §1, with “UK). […]” for “UK).”

Factor Xa [7] = target: T2, Factor Xa (Bos taurus, UniProt P00743); assay: Factor Xa activity, direct effect; assay type: biochemical, human; conditions: Heparanase 10 μg/ml, no heparinoid, normal value 100%
T2 construct: purchased Chromogenics
Protocol: as §1

Antithrombin III = target: T3, Antithrombin III (Homo sapiens, UniProt P01008); assay: Antithrombin III (chromogenic Berichrom Antithrombin III kit); assay type: biochemical; conditions: Heparanase 10 μg/ml; normal range 74-114%
T3 construct: from tissue; host or cells: normal plasma
Protocol: as §1

Factor Xa [8] = assay: Factor Xa activity ex vivo in plasma of LMWH-treated patients; assay type: biochemical, human; conditions: for Factor Xa activity in LMWH-treated patient plasma: plasma of twelve LMWH-treated patients, measured within 5 min, recombinant pro-heparanase, FIG. 5A
Protocol: FIG. 5A. Heparanase pro-enzyme was added to plasma derived from twelve independent LMWH-treated patients. Factor Xa activity was then measured, within 5 min. Each sample was measured in the absence (open bars) or presence (filled bars) of […] recombinant pro-heparanase. Each measurement was performed in duplicates (the average of each duplicate is shown, with differences between measurements <10%).
FIG. 5B. Summary of the effect of pro-heparanase on Factor Xa activity in the presence of heparin treated plasma, and the 12 LMWH-treated patient derived plasma samples (average±S.D.). Abbreviations: act. (activity), pat. (patient), pla. (plasma) cont. (control).
In order to assess possible clinical effects of heparanase pro-enzyme as an anti-dot to LMWH, heparanase pro-enzyme effect on Factor Xa activity ex vivo, was next tested in plasma derived from patients treated with LMWH, which were incubated with 10 •g/ml heparanase proenzyme. […] Thus, heparanase pro-enzyme reduced FXa inhibitory effects of LMWH in individual patient plasma samples, even at high levels of LMWH. Overall, the level of FXa inhibitory activity of LMWH in treated patients was reduced approximately by 50% (FIG. 5B).

normal donor platelets = assay: Platelet aggregation stimulated by mediators (ADP, collagen, thrombin); assay type: cell-based; conditions: Heparanase 10 μg/ml
Protocol: as §1
The effects of heparanase on platelet aggregation stimulated by a variety of mediators (e.g. ADP, collagen, thrombin), was next tested.

Protein C = target: T4, Protein C (Homo sapiens, UniProt P04070); assay: Protein C activity (Berichrom Protein C kit); assay type: biochemical; conditions: Heparanase 10 μg/ml; normal range 75-151%
T4 construct: from tissue; host or cells: normal plasma
Protocol: as §1

Protein S = target: T5, Protein S (Homo sapiens, UniProt P07225); assay: Protein S activity (Liatest kit); assay type: biochemical; conditions: Heparanase 10 μg/ml; normal range 54-138%
T5 construct: from tissue; host or cells: normal plasma
T5 sequence (P07225 42-676): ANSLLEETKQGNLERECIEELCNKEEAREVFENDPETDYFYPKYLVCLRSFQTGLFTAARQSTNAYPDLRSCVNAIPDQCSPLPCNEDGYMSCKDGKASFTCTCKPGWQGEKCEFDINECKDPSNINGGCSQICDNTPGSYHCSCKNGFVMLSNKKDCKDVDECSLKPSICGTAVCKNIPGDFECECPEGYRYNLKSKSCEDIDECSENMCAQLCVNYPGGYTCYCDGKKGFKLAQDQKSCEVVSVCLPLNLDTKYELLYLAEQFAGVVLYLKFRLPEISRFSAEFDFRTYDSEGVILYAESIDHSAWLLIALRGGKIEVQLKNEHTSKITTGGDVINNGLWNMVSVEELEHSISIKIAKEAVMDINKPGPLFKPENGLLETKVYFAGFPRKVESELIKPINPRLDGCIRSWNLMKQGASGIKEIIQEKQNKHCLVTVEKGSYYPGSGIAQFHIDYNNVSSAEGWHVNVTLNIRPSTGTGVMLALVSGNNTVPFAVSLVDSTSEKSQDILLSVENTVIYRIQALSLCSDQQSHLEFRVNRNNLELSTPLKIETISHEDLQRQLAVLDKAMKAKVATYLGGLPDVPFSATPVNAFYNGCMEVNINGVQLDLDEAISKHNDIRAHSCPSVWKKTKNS
Protocol: as §1

T2 sequence (P00743 234-492 limits assumed): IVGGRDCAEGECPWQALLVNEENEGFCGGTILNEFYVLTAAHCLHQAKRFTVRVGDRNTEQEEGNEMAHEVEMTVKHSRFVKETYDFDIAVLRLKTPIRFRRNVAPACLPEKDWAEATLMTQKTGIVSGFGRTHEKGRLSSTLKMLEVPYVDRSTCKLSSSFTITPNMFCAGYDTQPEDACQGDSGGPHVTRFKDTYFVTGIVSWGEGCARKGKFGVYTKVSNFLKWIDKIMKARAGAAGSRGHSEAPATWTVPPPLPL
T2 sequence (P00743 41-180 limits assumed): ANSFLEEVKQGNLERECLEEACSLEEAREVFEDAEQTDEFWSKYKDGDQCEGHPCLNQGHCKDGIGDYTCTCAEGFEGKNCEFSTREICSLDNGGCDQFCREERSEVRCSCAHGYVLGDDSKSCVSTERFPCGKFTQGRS
T3 sequence (P01008 33-464): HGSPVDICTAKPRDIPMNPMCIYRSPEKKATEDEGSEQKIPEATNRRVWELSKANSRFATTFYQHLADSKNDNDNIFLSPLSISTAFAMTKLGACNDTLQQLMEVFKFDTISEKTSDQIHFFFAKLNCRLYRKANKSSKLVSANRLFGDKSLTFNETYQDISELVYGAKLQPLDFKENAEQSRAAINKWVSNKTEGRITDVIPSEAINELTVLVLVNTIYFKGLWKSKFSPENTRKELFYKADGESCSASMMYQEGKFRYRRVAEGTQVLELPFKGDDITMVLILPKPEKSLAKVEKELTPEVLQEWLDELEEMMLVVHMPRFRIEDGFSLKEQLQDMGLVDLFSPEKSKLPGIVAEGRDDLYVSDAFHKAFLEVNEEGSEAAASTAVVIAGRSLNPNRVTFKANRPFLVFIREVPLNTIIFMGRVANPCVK
T4 sequence (P04070 19-461 limits assumed): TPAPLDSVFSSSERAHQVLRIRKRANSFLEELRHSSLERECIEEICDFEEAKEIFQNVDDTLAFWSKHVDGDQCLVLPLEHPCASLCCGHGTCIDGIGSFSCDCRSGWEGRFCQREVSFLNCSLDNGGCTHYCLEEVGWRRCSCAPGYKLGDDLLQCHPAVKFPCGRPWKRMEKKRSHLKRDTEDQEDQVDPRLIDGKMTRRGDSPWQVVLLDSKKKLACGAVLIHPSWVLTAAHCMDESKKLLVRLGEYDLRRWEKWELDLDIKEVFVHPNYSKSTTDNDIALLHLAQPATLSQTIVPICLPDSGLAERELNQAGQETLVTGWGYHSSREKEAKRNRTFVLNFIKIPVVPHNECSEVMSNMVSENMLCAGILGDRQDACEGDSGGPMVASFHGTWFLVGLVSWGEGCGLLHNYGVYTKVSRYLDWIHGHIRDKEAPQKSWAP

Enoxaparin [low molecular weight heparin, reference compound]
Effect of heparinoid on Factor Xa activity (Factor Xa [1]; FIG. 4): reduces significantly

Lys158-Asp171 heparin-binding peptide: fourteen amino acid peptide of residues Lys158-Asp171 of human heparanase, heparin-binding domain, SEQ ID NO: 1 (KKFKNSTYSRSSVD; listed as Homo sapiens)
Reversal of Factor Xa inhibitory effect of LMWH (Factor Xa [1]; peptide 1 mg/ml, FIG. 7): completely reverse
Reversal of Factor Xa inhibitory effect of UFH (Factor Xa [1]; peptide 1 mg/ml, FIG. 7): completely reverse
Reversal of Factor Xa inhibitory effect of LMWH (Factor Xa [1]; peptide 1 mg/ml, FIG. 7, listed as Lys158-Asp171 heparin binding (HB) peptide): abolished
Reversal of Factor Xa inhibitory effect of heparin (Factor Xa [1]): completely reverse
Reversal of Factor Xa inhibitory effect of heparin (Factor Xa [1]; listed as Lys158-Asp171 heparin binding (HB) peptide): abolished the FXa inhibitory effects of heparin
Inhibition of heparanase enzymatic activity (heparanase): inhibited heparanase enzymatic activity in a dose-responsive manner

heparin [reference compound]
Effect on PT response [2]: neither heparin nor heparanase pro-enzyme affected
Inhibition of clot formation in thrombin time assay ([3]; 0.5 u/ml heparin): complete coagulation inhibition
Inhibition of clot formation in aPTT assay ([4]; 1 u/ml heparin, normal plasma, FIG. 2): complete coagulation inhibition

B1: Heparanase pro-enzyme: latent 65 kDa human heparanase protein with Myc and His tags, purified from conditioned medium of CHO cells (protein, UniProt Q9Y251 36-543, looked up)
pro-form: QDVVDLDFFTQEPLHLVSPSFLSVTIDANLATDPRFLILLGSPKLRTLARGLSPAYLRFGGTKTDFLIFDPKKESTFEERSYWQSQVNQDICKYGSIPPDVEEKLRLEWPYQEQLLLREHYQKKFKNSTYSRSSVDVLYTFANCSGLDLIFGLNALLRTADLQWNSSNAQLLLDYCSSKGYNISWELGNEPNSFLKKADIFINGSQLGEDFIQLHKLLRKSTFKNAKLYGPDVGQPRRKTAKMLKSFLKAGGEVIDSVTWHHYYLNGRTATKEDFLNPDVLDIFISSVQKVFQVVESTRPGKKVWLGETSSAYGGGAPLLSDTFAAGFMWLDKLGLSARMGIEVVMRQVFFGAGNYHLVDENFDPLPDYWLSLLFKKLVGTKVLMASVQGSKRRKLRVYLHCTNTDNPRYKEGDLTLYAINLHNVTKYLRLPYPFSNKQVDKYLLRPLGPHGLLSKSVQLNGLTLKMVDDQTLPPLMEKPLRPGSSLGLPAFSYSFFVIRNAKVAACI
modifications: pro-form Myc and His tags
notes: latent 65 kDa human heparanase protein with Myc and His tags, purified from conditioned medium of CHO cells
Reversal of heparin anti-Xa activity (Factor Xa [1]; FIG. 4): restoring Xa activity to normal levels
Reversal of heparin anti-Xa activity (Factor Xa [1]; FIG. 4, listed as heparanase proenzyme): restoring FXa activity to the normal level
Thrombin time (TT) [5]: 17.3 s
Activated partial pro-thrombin time (aPTT) [6]: 29.4 s
Factor Xa-activity (Factor Xa [7]): 102%
Factor Xa-activity (Factor Xa [7]; listed as heparanase proenzyme): had no effect
Antithrombin III (Antithrombin III): 103%
Prothrombin time (PT) ([2]; Heparanase 10 μg/ml, normal range 10.03-12.43 sec, single representative experiment): 10.6 s
Effect on PT response [2]: neither heparin nor heparanase pro-enzyme affected
Reduction of FXa inhibitory activity of LMWH in treated patients (Factor Xa [8]; 10 •g/ml heparanase proenzyme, overall of 12 patients, FIG. 5B): ~50%
Factor Xa activity in LMWH-treated patient plasma (Factor Xa [8]): significant elevation
Factor Xa activity in LMWH-treated patient plasma (Factor Xa [8]; listed as heparanase pro-enzyme): elevated significantly
Reversal of heparin anti-coagulant effects on thrombin time [3]: significantly prevented; also recorded: significantly reversed
Pro-coagulant effects at low concentration ([4]; heparanase concentrations of less then 5 μg/ml, not shown, assay not specified): no pro-coagulant effects
Reversal of heparin anti-coagulant effects on the aPTT response ([4]; normal plasma, neutral pH, FIG. 2): significantly reversed
Platelet aggregation (normal donor platelets): No effects of heparanase
Protein C-activity (Protein C): 111%
Protein S-activity (Protein S): 105%
